# Results: paper PMC6755812
# Legend:
# [1] = target: Escherichia coli peptide methionine sulfoxide reductase A (E. coli) (UniProt P0A744)
# [2] = target: bovine pancreas insulin (bovine)
# [3] = target: Escherichia coli thioredoxin reductase (E. coli) (UniProt P0A9P4)
# [4] = target: Cys32 (UniProt position 33, FWAEWCGPCKM); conditions: reduced (dithiol) form implied; not stated explicitly; cited from earlier work
# Chain of Escherichia coli thioredoxin reductase (E. coli) (P0A9P4 2-321): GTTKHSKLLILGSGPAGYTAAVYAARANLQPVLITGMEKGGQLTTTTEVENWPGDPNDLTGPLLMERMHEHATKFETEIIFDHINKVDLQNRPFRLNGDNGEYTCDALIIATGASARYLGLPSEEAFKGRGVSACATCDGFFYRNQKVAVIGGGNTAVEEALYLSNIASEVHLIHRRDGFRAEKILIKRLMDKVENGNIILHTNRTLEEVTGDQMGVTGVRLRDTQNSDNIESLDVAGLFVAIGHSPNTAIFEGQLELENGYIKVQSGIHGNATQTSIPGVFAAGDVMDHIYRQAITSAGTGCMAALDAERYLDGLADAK
# Chain of Escherichia coli thioredoxin (P0AA25 2-109): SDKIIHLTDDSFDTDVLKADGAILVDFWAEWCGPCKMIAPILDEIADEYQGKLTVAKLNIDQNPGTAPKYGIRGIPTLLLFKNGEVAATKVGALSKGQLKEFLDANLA
# Chain of Escherichia coli peptide methionine sulfoxide reductase A (E. coli) (P0A744 2-212): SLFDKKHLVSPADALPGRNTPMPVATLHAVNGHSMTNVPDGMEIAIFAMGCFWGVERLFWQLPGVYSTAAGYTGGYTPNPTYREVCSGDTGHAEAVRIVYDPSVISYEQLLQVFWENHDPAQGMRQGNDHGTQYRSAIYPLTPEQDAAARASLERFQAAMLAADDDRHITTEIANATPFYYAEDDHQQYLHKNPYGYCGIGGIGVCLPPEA
Substance,"k1: rate constant of Trx–MsrA mixed disulfide formation (stopped-flow fluorescence, 1 μM oxidized MsrA, 5-100 μM reduced Trx, pH 7.0, 25 °C) [1]","k2: rate constant of mixed disulfide dissociation to reduced MsrA and oxidized Trx (stopped-flow fluorescence, pH 7.0, 25 °C) [1]","Specific insulin reductase activity (0.13 mM insulin, 1 mM DTT, 0.5-2.0 μM Trx, onset of aggregation at OD650, pH 7.0, 25 °C) [2]","Catalytic activity of S-MetO reduction by NADPH (Vi/[Trx]) in the reconstituted NADPH/TrxR/Trx/MsrA chain (4.5 μM TrxR, 4.5 μM MsrA, 0.1-1.0 μM Trx, pH 7.0, 25 °C) [3]","kcat/Km: activity as substrate of TrxR (ecTrxR-catalysed reduction of Trx by NADPH, DTNB-coupled, 0.04 μM TrxR, 0.1-300 μM Trx, pH 7.0, 25 °C) [3]",pKa [4]
Last Animalia and Fungi Common Ancestor thioredoxin (enzyme),45000 M^−1 s^−1,3.47 s^−1,0.0224 min^−1 μM^−1,,,
Last Eukaryotic Common Ancestor thioredoxin (enzyme),40700 M^−1 s^−1,3.51 s^−1,0.0738 min^−1 μM^−1,0.29 min^−1,,
Last γ-Proteobacteria Common Ancestor thioredoxin (enzyme),369000 M^−1 s^−1,1.65 s^−1,0.0645 min^−1 μM^−1,25.8 min^−1,718000 M^−1 s^−1,
Escherichia coli thioredoxin (from UniProt P0AA25 2-109) (enzyme),1.01e+06 M^−1 s^−1,2.89 s^−1,0.0512 min^−1 μM^−1,66.9 min^−1,8.81e+06 M^−1 s^−1,
Last Bacterial Common Ancestor thioredoxin (enzyme),498000 M^−1 s^−1,2.69 s^−1,0.0781 min^−1 μM^−1,11.7 min^−1,117000 M^−1 s^−1,
Archaeal–Eukaryotic Common Ancestor thioredoxin (enzyme),716000 M^−1 s^−1,1.75 s^−1,0.0452 min^−1 μM^−1,14.6 min^−1,130000 M^−1 s^−1,
"Last Common Ancestor of the Cyanobacterial, Deinococcus, and Thermus group thioredoxin (enzyme)",436000 M^−1 s^−1,2.93 s^−1,0.104 min^−1 μM^−1,36.9 min^−1,7.6e+06 M^−1 s^−1,
Thioredoxin 1 (ecTrx) (Escherichia coli),,,,,,7.1
Last Archaeal Common Ancestor thioredoxin (enzyme),518000 M^−1 s^−1,1.54 s^−1,0.0532 min^−1 μM^−1,9.13 min^−1,118000 M^−1 s^−1,
